Laboratory results published in the supplement of paper PMC12042874.
± gives the uncertainty stated by the source.

Experiment: amyloid nucleation score (Sup35N fusion, yeast selection) (log enrichment); library NNK3; higher = more nucleation; inactive = no reads after selection
How it was run: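 Yeast lacking psi expressed peptides of 20 random codons fused to Sup35N, received 100 μM copper sulfate for 24 hours, and were then grown for 7 days at 30°C on medium lacking adenine and uracil. Illumina sequencing of input and output plasmid inserts provided the reads. Nucleation scores are DiMSum log enrichments of output over input, centred on the mode of non-aggregating sequences. Any sequence with under 100 input reads was excluded.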

Row | Substance | amyloid nucleation score
1 | AACYINMCIGIVYGYSFLSF | 1.13 ± 0.087
2 | AAIYYLSRAECNFSRYKNYL | inactive
3 | AAMHLDILNGTATRLSYSCA | inactive
4 | AANLGRSIPESSRKGIGFNF | inactive
5 | ACCRSNDYDSYTPFDVVNHW | inactive
6 | ACLLKSYFSRYNEKPTCYVT | inactive
7 | ACSDFSE | inactive
8 | ACSRRERY | inactive
9 | ACTFITRMYCGWHSS | inactive
10 | ACTIMWSSLKSIT | inactive
11 | ACTRYCWHYFVNIVWCESDF | inactive
12 | ACYFWS | inactive
13 | ADFTRGGT | inactive
14 | ADKIRIRFY | inactive
15 | ADLRIRSSSCRPSADINFG | inactive
16 | ADPSMVNVICHGLSDRGSY | inactive
17 | ADSLRCVSWFSD | inactive
18 | ADTTCHFACKPKLDFLRKTT | inactive
19 | AELVNIF | inactive
20 | AENINCKMM | 1.45 ± 0.12
21 | AENLVWRVMAYSARSTADYG | inactive
22 | AESICALTML | inactive
23 | AEWWSTVCH | inactive

Row | Substance | amyloid nucleation score
24 | AEWYIRITGDICLDPYLCKN | inactive
25 | AFFSFNAD | inactive
26 | AFKWSRSCGMWLTDIGAWW | inactive
27 | AFMVKYSSVLYVCNLALGRA | inactive
28 | AFNVIRYVVWFSMVRASNAS | inactive
29 | AFYYWVDEMVSLNIRLSFYN | inactive
30 | AGDGHLSLS | inactive
31 | AGFSVVSRPLFVRQLPV | inactive
32 | AGIRYTNYFSSMGSIGGDGV | inactive
33 | AGPVMRRLFVNGWFVVFGRM | inactive
34 | AGSPCWSNHHYMTKRDCRFS | inactive
35 | AHGEMRAVKPINFKACWRCL | inactive
36 | AHRLHSLINSLTLSNRSMM | inactive
37 | AHVLVSFCFSFTRSVKFGLV | inactive
38 | AICAVPRTKMMIQRTSSNRS | inactive
39 | AIERIFHCGETVIFMTGHLL | inactive
40 | AIFHGIRCSFMSSSLYTNDG | inactive
41 | AIFRS | inactive
42 | AIKVGASIINFLWLAHVWCP | inactive
43 | AINVRRSLTTYPNFLDTVRS | inactive
44 | AIYAYTFAKRPSCEQATRVS | inactive
45 | AKCMSDFVECRKSRRMMAGW | inactive
46 | AKDMEGGQHNDGSDRRNERW | inactive

Row | Substance | amyloid nucleation score
47 | AKSKSIRERLVVFEASQTRY | inactive
48 | AKYFKFKHNVKGVHWKHVPE | -0.074 ± 0.53
49 | AKYIEHGYCF | inactive
50 | ALDIDWFYWYRHQSSPSFFY | inactive
51 | ALGTSEGRLQLSYDNHGVVL | inactive
52 | ALHFDFIFIYRDRCCCCTFY | 1.27 ± 0.1
53 | ALMMRLFFRIRSTMCCWVCS | inactive
54 | ALQLHWYYRDTRRRCFTVCV | inactive
55 | ALSVSSLALANDDVTG | inactive
56 | ALYWTEYQ | inactive
57 | AMIINLRMWYNLRIIIMGTR | inactive
58 | AMNNAGSGKQEYNRYGEIIN | inactive
59 | AMNNLLFTLYVF | inactive
60 | AMQAAPVCRRYAVVTTHFDH | inactive
61 | AMSIVERQGDVWLSYRKWNG | inactive
62 | AMTRCGECGHRMGKASAGMW | inactive
63 | ANAISWGYLIKDYS | inactive
64 | ANCPMHRLTAGNSLCLWTW | 1.69 ± 0.086
65 | ANCVALTIVSYQVARDMKSK | 1.36 ± 0.087
66 | ANESMWYSLMLTVFVLAGCM | inactive
67 | ANGLWKRIAFEGTARCEGMG | inactive
68 | ANTFVSSWFVTTNRQKTERG | inactive
69 | ANVDTIDFASAVILF | inactive

Row | Substance | amyloid nucleation score
70 | APAKTYIACC | inactive
71 | APIKIRFD | inactive
72 | APRGVVLPWTLDIASSLLTP | inactive
73 | APRLFINY | inactive
74 | ARASVFAMGDTPLWSG | inactive
75 | ARFLYAVVLRWFIMEYRAGT | inactive
76 | ARIFH | inactive
77 | ARIYCSWYPLYTFYLIHSH | 0.644 ± 0.2
78 | ARLVAGCVMCHGSLWEMIRE | 0.572 ± 0.28
79 | ARNFLVRIWHCDRFSDCGII | inactive
80 | ARPMIPMCLLQRAMYPLYSP | inactive
81 | ARRGLPVARIIFSHDPNL | inactive
82 | ARWVWDIKETVTLV | inactive
83 | ASAFYRCVGGIVYVHTIVGV | inactive
84 | ASANLRILYLWTIGNVLNAY | inactive
85 | ASAYGSSLYSRFTVEYNSII | 0.223 ± 0.38
86 | ASDGCSLRVAPVTQSPLWVS | inactive
87 | ASDNWESRPSRSSDKSGVIG | inactive
88 | ASDRMKGVLNLLQYVGYSSM | inactive
89 | ASFISCSIMYYFIVFCL | inactive
90 | ASFYWECMYVHGDVFLCVWY | 1.79 ± 0.1
91 | ASGLDIISSSNKLH | inactive
92 | ASVYTN | inactive

Row | Substance | amyloid nucleation score
93 | ATGLWGICGWTPDTNHLQVM | inactive
94 | ATICYEVRWEPDSSPGRS | inactive
95 | ATTVNGFIISHRVYNAGSWY | 1.28 ± 0.1
96 | AVALY | inactive
97 | AVCPSISTLSCGQ | -0.055 ± 0.82
98 | AVCWLRMTYGLRLEVGSPVD | inactive
99 | AVDQGGLAYRGRRC | inactive
100 | AVLHNMGFSHILAQLV | inactive
101 | AVNPRQFKFTVDEKSIGRVA | inactive
102 | AVSSVLIHALYLVGMLPPSN | 1.83 ± 0.092
103 | AVVLFLGTLQLGCLGLIVQL | -0.424 ± 0.75
104 | AVWYRNI | 2.06 ± 0.057
105 | AWISGHVRVKLSFRLTFFLK | inactive
106 | AWKLKFFVFNSLSVIT | inactive
107 | AWKTLAHRQSWGGCNRA | inactive
108 | AWLSLVCVDVGTTPFSHNDR | inactive
109 | AWTTQPPYMFSSGFWNFYVC | inactive
110 | AYCPKTALEVY | inactive
111 | AYCVFHSIYGV | inactive
112 | AYIKWNVDCRLKTHNDGYFL | inactive
113 | AYLLSIANCFSAVYLHPSDS | 0.216 ± 0.56
114 | AYNQSRILGVDLACRNELLC | inactive
115 | AYNSYELVRAL | inactive

Row | Substance | amyloid nucleation score
116 | AYRVVQTGDLHGRCAWIVNV | 0.088 ± 0.88
117 | AYSYRGHGLGMDGAGPVCLI | inactive
118 | AYWESNSIPR | inactive
119 | CAESIRHRRP | inactive
120 | CAITAQARV | inactive
121 | CALYFVWAWWERRRKMYYA | inactive
122 | CAMTLRTFFQPPPITTSKYC | inactive
123 | CAVYFLR | inactive
124 | CCGMYYNSMASNVWSER | 2.17 ± 0.084
125 | CCHSITFLVNLGMRERKNKV | inactive
126 | CCIKGHFPSSFGSWAKYLHV | inactive
127 | CCLPSYSVGCRASGDDSW | inactive
128 | CCLYTVNNSDSLVNTTVGVG | inactive
129 | CCNFWRMPMTLCRNSCSSST | 0.718 ± 0.17
130 | CCRDVYTEGDM | inactive
131 | CCVMHDE | inactive
132 | CDFIHCLVCFLPIWKSCGTE | 0.732 ± 0.34
133 | CDMDVFLSNMPSSVVNRSG | inactive
134 | CDTFVVNMSQFLSISTMAER | 0.66 ± 0.17
135 | CEYVNKLHTVGVHWGTGSRE | inactive
136 | CFAVWHISVEMYVRDRW | inactive
137 | CFAYCFLSLFEMRIWTN | -0.074 ± 0.64
138 | CFCFARFKFR | 2.19 ± 0.071

Row | Substance | amyloid nucleation score
139 | CFCVDADIIRTLMVCDIILS | 1.12 ± 0.099
140 | CFDWYFDNDTRFIVGAMLVW | inactive
141 | CFFLYCLNFFMRSIERDRDG | 2.24 ± 0.054
142 | CFGHYSMN | inactive
143 | CFHVILFK | 1.11 ± 0.095
144 | CFLYLLLQTN | inactive
145 | CFPIASHGDSCGMIAA | inactive
146 | CFQDRQKLF | inactive
147 | CFSVGKWSIFRN | inactive
148 | CFSYGMWNSLPRWLALN | inactive
149 | CFSYSLGVLVTYRGCYRSVL | inactive
150 | CFTLFVSQYVNDLDDYKRNW | 1.34 ± 0.092
151 | CFVDFYSWWLSITVQGLHNN | inactive
152 | CFVFTFGT | 1.38 ± 0.082
153 | CFVFWKSRQIYWMMMSRCVV | inactive
154 | CFVVNCHYFDFMDV | 2.51 ± 0.06
155 | CFVYRTLISNLFSIWHSLQF | inactive
156 | CFYIKKSKVGLGHWINHV | inactive
157 | CGEYMRCLNVEYRCVGVKGS | inactive
158 | CGPFGFMCDAVGSAQFDIMM | inactive
